The target in assay [1] is FLS2 receptor of Arabidopsis thaliana (Arabidopsis thaliana) (UniProt Q9FL28). In words: cell-based or functional assay.
Assay [2] has as its target … SENSING 2 (FLS2) of soybean (soybean). In words: cell-based or functional assay.

For two molecules, ROS activity in Arabidopsis leaf tissue, Average RLU value, 100 nM, ROS activity in Arabidopsis leaf tissue, fold increase over mock treatment, 100 nM and % Activity (compared to unmodified Bt.4Q7Flg22), soybean ROS assay results are on record in US20200170258A1.

Sequence of FLS2 receptor of Arabidopsis thaliana (Arabidopsis thaliana) (Q9FL28 24-1173): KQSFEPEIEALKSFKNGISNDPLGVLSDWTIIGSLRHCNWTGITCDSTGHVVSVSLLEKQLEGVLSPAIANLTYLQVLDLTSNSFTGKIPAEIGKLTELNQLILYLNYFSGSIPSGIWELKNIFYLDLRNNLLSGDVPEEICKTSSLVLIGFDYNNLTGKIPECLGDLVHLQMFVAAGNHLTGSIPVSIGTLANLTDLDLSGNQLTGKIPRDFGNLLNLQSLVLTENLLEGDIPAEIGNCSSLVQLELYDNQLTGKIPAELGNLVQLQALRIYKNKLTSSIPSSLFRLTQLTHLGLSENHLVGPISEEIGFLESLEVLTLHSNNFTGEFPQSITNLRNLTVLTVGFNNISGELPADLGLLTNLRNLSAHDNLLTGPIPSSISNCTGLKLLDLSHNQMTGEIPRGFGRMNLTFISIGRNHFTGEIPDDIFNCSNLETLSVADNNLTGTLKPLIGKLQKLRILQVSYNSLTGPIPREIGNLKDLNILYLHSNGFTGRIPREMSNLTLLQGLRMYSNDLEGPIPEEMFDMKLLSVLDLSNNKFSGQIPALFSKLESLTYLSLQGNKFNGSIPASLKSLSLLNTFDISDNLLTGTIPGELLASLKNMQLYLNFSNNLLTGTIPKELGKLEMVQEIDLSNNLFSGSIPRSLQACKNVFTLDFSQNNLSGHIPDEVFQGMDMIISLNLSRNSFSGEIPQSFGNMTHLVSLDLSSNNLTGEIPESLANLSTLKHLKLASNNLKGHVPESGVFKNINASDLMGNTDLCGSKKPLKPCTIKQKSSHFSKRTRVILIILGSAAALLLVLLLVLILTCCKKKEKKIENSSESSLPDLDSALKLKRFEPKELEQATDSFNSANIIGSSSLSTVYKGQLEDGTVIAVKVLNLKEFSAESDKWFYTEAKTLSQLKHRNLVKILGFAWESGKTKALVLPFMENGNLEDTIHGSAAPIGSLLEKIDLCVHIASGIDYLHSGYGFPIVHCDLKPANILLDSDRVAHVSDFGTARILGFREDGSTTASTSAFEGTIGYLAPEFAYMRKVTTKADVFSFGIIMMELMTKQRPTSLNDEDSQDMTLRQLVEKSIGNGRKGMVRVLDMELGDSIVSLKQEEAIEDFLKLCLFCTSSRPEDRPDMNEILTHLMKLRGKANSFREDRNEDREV

B1: Bt.4Q7Flg22 (peptide)
peptide: DRLSSGKRINSASDDAAGLAIA
In assay [1], B1 showed an ROS activity in Arabidopsis leaf tissue, Average RLU value, 100 nM of 258000 RLU and an ROS activity in Arabidopsis leaf tissue, fold increase over mock treatment, 100 nM of 3.1 fold. Also, in assay [2], the % Activity (compared to unmodified Bt.4Q7Flg22), soybean ROS assay is 100%.

B2: Bt.4Q7Flg22 Mod-1 (peptide)
peptide: Ac-DRLSSGKRINSASDDAAGLAIA-NH2
On to B2, for which the % Activity (compared to unmodified Bt.4Q7Flg22), soybean ROS assay in assay [2] turned out to be 106%.
